According to US20190135934A1 (published 2019):

T1: CD20 protein on CD20 protein-positive lymphoma cell Raji (ATCC CCL-86) (UniProt P11836 1-297, limits assumed)
T1 construct: whole, on cells; The target is native CD20 on Raji cells; also called CD20 antigen
T1 sequence (looked up): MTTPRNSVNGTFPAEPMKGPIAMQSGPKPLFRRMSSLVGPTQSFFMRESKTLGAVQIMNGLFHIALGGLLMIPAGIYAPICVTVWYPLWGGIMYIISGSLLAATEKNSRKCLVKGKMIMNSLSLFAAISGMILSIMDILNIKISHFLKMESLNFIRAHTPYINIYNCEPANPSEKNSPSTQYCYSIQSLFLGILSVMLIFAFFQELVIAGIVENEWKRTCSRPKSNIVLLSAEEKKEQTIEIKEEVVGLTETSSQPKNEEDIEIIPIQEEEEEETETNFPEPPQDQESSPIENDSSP

B1: novel CD20 antibody H102YH (antibody, human IgG1, V domains shown)
VH: QVQLQQPGAELVKPGASVKMSCKASGYTFTSYNMHWVKQTPGRGLEWIGAIYPGNGDTSYNQKFKGKATLTADKSSSTAYMQLSSLTSEDSAVYYCARSTYHGGDWYFNVWGAGTTVTVSA
VL: QIVLSQSPAILSASPGEKVTMTCRASSSVSYIHWFQQKPGSSPKPWIYATSNLASGVPVRFSGSGSGTSYSLTISRVEAEDAATYYCQQWTSNPPTFGGGTKLEIKV
B2: novel CD20 antibody H102YQ (antibody, human IgG1, V domains shown)
VH: QVQLQQPGAELVKPGASVKMSCKASGYTFTSYNMHWVKQTPGRGLEWIGAIYPGNGDTSYNQKFKGKATLTADKSSSTAYMQLSSLTSEDSAVYYCARSTYQGGDWYFNVWGAGTTVTVSA
VL: QIVLSQSPAILSASPGEKVTMTCRASSSVSYIHWFQQKPGSSPKPWIYATSNLASGVPVRFSGSGSGTSYSLTISRVEAEDAATYYCQQWTSNPPTFGGGTKLEIKV
B3: novel CD20 antibody H102YR (antibody, human IgG1, V domains shown)
VH: QVQLQQPGAELVKPGASVKMSCKASGYTFTSYNMHWVKQTPGRGLEWIGAIYPGNGDTSYNQKFKGKATLTADKSSSTAYMQLSSLTSEDSAVYYCARSTYRGGDWYFNVWGAGTTVTVSA
VL: QIVLSQSPAILSASPGEKVTMTCRASSSVSYIHWFQQKPGSSPKPWIYATSNLASGVPVRFSGSGSGTSYSLTISRVEAEDAATYYCQQWTSNPPTFGGGTKLEIKV
B4: novel CD20 antibody H102YN (antibody, human IgG1, V domains shown)
VH: QVQLQQPGAELVKPGASVKMSCKASGYTFTSYNMHWVKQTPGRGLEWIGAIYPGNGDTSYNQKFKGKATLTADKSSSTAYMQLSSLTSEDSAVYYCARSTYNGGDWYFNVWGAGTTVTVSA
VL: QIVLSQSPAILSASPGEKVTMTCRASSSVSYIHWFQQKPGSSPKPWIYATSNLASGVPVRFSGSGSGTSYSLTISRVEAEDAATYYCQQWTSNPPTFGGGTKLEIKV
B5: novel CD20 antibody H102YL (antibody, human IgG1, V domains shown)
VH: QVQLQQPGAELVKPGASVKMSCKASGYTFTSYNMHWVKQTPGRGLEWIGAIYPGNGDTSYNQKFKGKATLTADKSSSTAYMQLSSLTSEDSAVYYCARSTYLGGDWYFNVWGAGTTVTVSA
VL: QIVLSQSPAILSASPGEKVTMTCRASSSVSYIHWFQQKPGSSPKPWIYATSNLASGVPVRFSGSGSGTSYSLTISRVEAEDAATYYCQQWTSNPPTFGGGTKLEIKV
B6: novel CD20 antibody H102YV (antibody, human IgG1, V domains shown)
VH: QVQLQQPGAELVKPGASVKMSCKASGYTFTSYNMHWVKQTPGRGLEWIGAIYPGNGDTSYNQKFKGKATLTADKSSSTAYMQLSSLTSEDSAVYYCARSTYVGGDWYFNVWGAGTTVTVSA
VL: QIVLSQSPAILSASPGEKVTMTCRASSSVSYIHWFQQKPGSSPKPWIYATSNLASGVPVRFSGSGSGTSYSLTISRVEAEDAATYYCQQWTSNPPTFGGGTKLEIKV
B7: novel CD20 antibody H102YM (antibody, human IgG1, V domains shown)
VH: QVQLQQPGAELVKPGASVKMSCKASGYTFTSYNMHWVKQTPGRGLEWIGAIYPGNGDTSYNQKFKGKATLTADKSSSTAYMQLSSLTSEDSAVYYCARSTYMGGDWYFNVWGAGTTVTVSA
VL: QIVLSQSPAILSASPGEKVTMTCRASSSVSYIHWFQQKPGSSPKPWIYATSNLASGVPVRFSGSGSGTSYSLTISRVEAEDAATYYCQQWTSNPPTFGGGTKLEIKV
B8: novel CD20 antibody H102YS (antibody, human IgG1, V domains shown)
VH: QVQLQQPGAELVKPGASVKMSCKASGYTFTSYNMHWVKQTPGRGLEWIGAIYPGNGDTSYNQKFKGKATLTADKSSSTAYMQLSSLTSEDSAVYYCARSTYSGGDWYFNVWGAGTTVTVSA
VL: QIVLSQSPAILSASPGEKVTMTCRASSSVSYIHWFQQKPGSSPKPWIYATSNLASGVPVRFSGSGSGTSYSLTISRVEAEDAATYYCQQWTSNPPTFGGGTKLEIKV

These binders were tested against T1, CD20 protein on CD20 protein-positive … (assay: flow cytometry, fluorescently labeled antibody on Raji cells).
Method: Briefly, after diluted in equal concentration proportions, the purified fluorescently labeled antibody was incubated with the CD20 protein-positive lymphoma cell Raji (ATCC CCL-86) for 45 minutes on ice, and then washed twice and subjected to flow cytometry. The binding activity of the antibody was further evaluated based on the change in fluorescence intensity of the antibody after binding to the cells at different antibody concentrations.

Binding result, binds:
B1
B2
B3
B4
B5
B6
B7
B8
